B1: 9A1 (human monoclonal antibody) (antibody, V domains shown)
VH: EVQLLESGGGVVQPGRSLRLSCVVSGFTFNNYGMHWVRQAPGKGLEWVAVISYEGSVKYYGDHVDGRFTISRDPFKNTLYLHMNNLRPDDTAVYYCAKVSAIFWLGQGLSPIDVWGQGTTVTVSS
VL: DIVMTQSPATLSASPGERVTLSCRASQNIRNNLAWYQQKPGQAPRLLIHGASTRAAGAPARFSGSGSDTQFTLTVSSLQSEDFAVYYCHQYSKWPVTFGGGTKVDIK
notes: also called mAb 9A1
B2: 0304-3H3 (human monoclonal antibody) (antibody, V domains shown)
VH: EVQLVESGPGLVKPSETLSLTCTASGGSISTYYWSWIRQPPGKGLEWIGYIYYSGSTNYNPSLKSRVTISVDTSKNQFSLKLSSVTAADTAVYYCARDRIAPVGKFFGWYFDLWGRGTLVTVSS
VL: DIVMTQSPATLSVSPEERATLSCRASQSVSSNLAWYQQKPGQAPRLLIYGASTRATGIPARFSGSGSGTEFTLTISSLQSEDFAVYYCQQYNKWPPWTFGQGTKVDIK
notes: also called mAb 0304-3H3
B3: 4A8 (human monoclonal antibody) (antibody, V domains shown)
VH: EVQLVESGAEVKKPGASVKVSCKVSGYTLTELSMHWVRQAPGKGLEWMGGFDPEDGETMYAQKFQGRVTMTEDTSTDTAYMELSSLRSEDTAVYYCATSTAVAGTPDLFDYYYGMDVWGQGTTVTVSS
VL: EIVMTQSPLSSPVTLGQPASISCRSSQSLVHSDGNTYLSWLQQRPGQPPRLLIYKISNRFSGVPDRFSGSGAGTDFTLKISRVEAEDVGVYYCTQATQFPYTFGQGTKVDIK
B4: 2M-10B11 (human monoclonal antibody) (antibody, V domains shown)
VH: EVQLVESGGGLVQPGGSLRLSCAASGFTVSSNYMSWVRQAPGKGLEWVSVIYSGGSTYYADSVKGRFTISRDNSKNTLYLQMNSLRAEDTAVYYCARATWLRGVMDVWGQGTTVTVSS
VL: QSALTQPHSVSESPGKTVTISCTGSSGSIASNYVQWYQQRPGSAPTTVIYEDNQRPSGVPDRFSGSIDSSSNSASLTISGLKTEDEADYYCQSYDSSNHWVFGGGTKLTVL
notes: ELISA group 2B; also called mAb 2M-10B11
B5: 1M-1D2 (human monoclonal antibody) (antibody, V domains shown)
VH: QVQLVESGGGLVQPGGSLRLSCAASGFTFSSYAMHWVRQAPGKGLEYVSAISGNGGSTYYAKSVKGRFTISRDNSKNTLYLQMGSLRAEDMAVYYCARGAEYYDFWSGYYSAYFDYWGQGTLVTVSS
VL: QAVVTQPPSASGTPGQRVTISCSGSSSNIGSNYVYWYQQLPGTAPKLLIYNNNQRPSGVPDRFSGSKSGTSASLAISGLRSEDEADYYCAAWDDSLIYVLFGGGTKLTVL

Legend:
Conditions in all cases: both partners purified
[1] = biological target: SARS-CoV-2 Spike protein S2 (SARS-CoV-2, Wuhan-Hu-1 (P0DTC2), UniProt P0DTC2); experiment: BLI
[2] = biological target: SARS-CoV-2 Spike protein S1 (SARS-CoV-2, Wuhan-Hu-1 (P0DTC2), UniProt P0DTC2); experiment: BLI
[3] = biological target: T1, SARS-CoV-2 Spike protein receptor binding domain (RBD) (Severe acute respiratory syndrome …, UniProt P0DTC2); experiment: ELISA
[4] = biological target: T1, SARS-CoV-2 Spike protein receptor …; experiment: BLI

Row | Binder | Kd [1] | Kd [2] | also measured
1 | B1 | < 0.001 nM | – | –
2 | B2 | 4.52 nM | – | –
3 | B3 | – | 92.7 nM | binding result [3]: no binding
4 | B4 | – | – | Kd [4]: 24.3 nM
5 | B5 | – | 108 nM | –

From article PMC7319273 (Science (New York, N.y.), 2020)
